Results: US20250041389A1, “ENHANCING ABSORPTION OF DIETARY COMPOUNDS TO PROMOTE HEALTH” (ARIZONA BOARD OF REGENTS ON BEHALF OF THE UNIVERSITY OF …, priority 2023, published 2025)

Legend:
[1] = Oral gavage of GUSB followed by curcumin in mice; assay of curcumin metabolites in serum and bone; format: in vivo, C57BI6 mice; conditions: after oral administration of GUSB with curcumin; FIG. 1
Description: Experimental Methods: Administer 140 U/g body weight of GUSB (E. coli-derived [Sigma G840]) orally via gavage (vs vehicle) to 10-week-old male C57BI6 mice.

[2] = Enzymatic activity of orally administered enzyme after passage through proteolytic sections of the GI tract; format: in vivo; conditions: oral administration

B1: GUSB: Beta-glucuronidase enzyme; E. coli-derived [Sigma G840] in Example 1 (protein, UniProt P05804 1-603, looked up)
Beta-glucuronidase: MLRPVETPTREIKKLDGLWAFSLDRENCGIDQRWWESALQESRAIAVPGSFNDQFADADIRNYAGNVWYQREVFIPKGWAGQRIVLRFDAVTHYGKVWVNNQEVMEHQGGYTPFEADVTPYVIAGKSVRITVCVNNELNWQTIPPGMVITDENGKKKQSYFHDFFNYAGIHRSVMLYTTPNTWVDDITVVTHVAQDCNHASVDWQVVANGDVSVELRDADQQVVATGQGTSGTLQVVNPHLWQPGEGYLYELCVTAKSQTECDIYPLRVGIRSVAVKGEQFLINHKPFYFTGFGRHEDADLRGKGFDNVLMVHDHALMDWIGANSYRTSHYPYAEEMLDWADEHGIVVIDETAAVGFNLSLGIGFEAGNKPKELYSEEAVNGETQQAHLQAIKELIARDKNHPSVVMWSIANEPDTRPQGAREYFAPLAEATRKLDPTRPITCVNVMFCDAHTDTISDLFDVLCLNRYYGWYVQSGDLETAEKVLEKELLAWQEKLHQPIIITEYGVDTLAGLHSMYTDMWSEEYQCAWLDMYHRVFDRVSAVVGEQVWNFADFATSQGILRVGGNKKGIFTRDRKPKSAAFLLQKRWTGMNFGEKPQQGGKQ
For B1, the “enzyme levels in the body” value [1] was “unchanged” and the “enzymatic activity after passing through the proteolytic sections of the GI tract (stomach and duodenum)” value [2] was “retain their enzymatic activity”.
